± gives the uncertainty stated by the source.
Assay: amyloid nucleation score (Sup35N fusion, yeast selection) (log enrichment); library NNK2; higher = more nucleation; inactive = no reads after selection
In short: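 The nucleation score is the log enrichment of output over input reads, calculated with DiMSum and centred on the mode score of non-aggregating sequences. Sequences with under 100 input reads were excluded. Reads came from Illumina sequencing of plasmid inserts from psi-negative yeast expressing Sup35N fused to peptides of 20 random codons, induced 24 hours with 100 μM copper sulfate and grown 7 days at 30°C without adenine and uracil.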

Row | Substance | amyloid nucleation score
1 | LKNFNLRIMTTPLNCNCNTY | -0.434 ± 0.29
2 | LKVGVIDNI | -1.2 ± 0.61
3 | LKWVTFEST | -0.418 ± 1.1
4 | LLFSSSSLPIGTGGYDLTAG | -0.408 ± 1.1
5 | LLFTGNLGFTVSRSLSRRDR | 6.945 ± 0.069
6 | LLGISLLSLWTFGYLSEIVV | 0 ± 0.8
7 | LLHLQYHLFMLCTVVNPHLL | -0.628 ± 0.54
8 | LLIFNGLYGWAIGDGLPSSW | 5.09 ± 0.051
9 | LLKARLLRSHLWVG | 0.057 ± 0.43
10 | LLKLCRRIKDATFDSLPGCA | 0.93 ± 0.31
11 | LLLCGNSRGQDEASSIVFTM | 0.726 ± 0.66
12 | LLLHWRSWMRKCHVITCWSS | 0.436 ± 0.35
13 | LLLPLFII | inactive
14 | LLNSCSTVESWCNLGEMDKY | 0.122 ± 1.1
15 | LLPSLWV | -0.437 ± 0.63
16 | LLQKDEVRE | -0.505 ± 0.3
17 | LLRRGVDIWVEHFRE | -0.613 ± 0.64
18 | LLRSEVGDLILPCVLERCRP | 1.13 ± 0.36
19 | LLSIYVSSWKLRGSAPG | -0.337 ± 0.63
20 | LLTRLKGGPPARAPHSTSGL | 1.91 ± 0.13
21 | LLVFNLIYPSVRKGFFIIYA | inactive
22 | LLYQKKDEWLGASYSLQKLS | -0.686 ± 0.37
23 | LLYQLRNMVILEHFMMIDFM | inactive
24 | LLYTSWLV | 0.272 ± 0.41
25 | LMFCIENLAVMESELMGSCR | 0.464 ± 0.62

Row | Substance | amyloid nucleation score
26 | LMGLQMSLPWSNEIVRVIPD | -0.663 ± 0.49
27 | LMHFGMKEEDYWKPCSICIS | inactive
28 | LMLGSWQDKMPSLLWLDLCV | 0.86 ± 0.52
29 | LMLIVQDPCLSEINFKLDSG | 4.59 ± 0.11
30 | LMLRGLEEARAPRCESWPSW | 1.21 ± 0.34
31 | LMSFGDLCIHLGFGSCFCLM | -0.631 ± 0.39
32 | LMSKKGNGIGLEQPLLSSDT | -0.778 ± 1.1
33 | LNDSLTIACSTNTANSWRNL | inactive
34 | LNDWNFLVMVHISIVIRILF | inactive
35 | LNGCGVLRPVR | 5.89 ± 0.067
36 | LNIFI | 2.96 ± 0.062
37 | LNKNYWGL | -0.921 ± 0.39
38 | LNLQSLTSHTVKGL | 0.147 ± 0.54
39 | LNMMFYYLRFRMHFRWMDC | -0.79 ± 0.38
40 | LNQSDLLADFLVLI | 0.474 ± 0.31
41 | LNSRS | -0.436 ± 0.76
42 | LNSSLLFHNLMVHH | inactive
43 | LNYMLSAPYFPYESEWSSKG | -0.59 ± 1.1
44 | LNYNYTQDR | -0.751 ± 1.1
45 | LPGCTTRLHVNLIGALECCK | 0.077 ± 0.35
46 | LPIDVSNVGTFVEWIFFAIR | -1.5 ± 0.54
47 | LPRMGSEWFVCWLCSCVATW | 0.718 ± 0.57
48 | LPTWYVLVPLMDYIYYLFKE | -0.536 ± 1
49 | LQCRLIRVMYVMHCDVWVV | -0.087 ± 0.24
50 | LQRRCLINKNTGTPRLSN | -0.358 ± 1

Row | Substance | amyloid nucleation score
51 | LQTQFTAVC | 0.27 ± 0.22
52 | LQVRSDSMNGFNW | -0.61 ± 1.1
53 | LRAVWATVIVSVAMSVSCPK | 5.07 ± 0.07
54 | LRAWLSSLAHTKRRCELGTP | 0.575 ± 0.3
55 | LRCHDGVKLSKSVCECCMYM | 2.37 ± 0.19
56 | LRCSESCNLMNKYGWRRNQA | 3.65 ± 0.081
57 | LRDCFVEYEGSSSMYYLRQW | -0.105 ± 0.4
58 | LRDTPLMGWYCFRSHLVTVS | 1.3 ± 0.51
59 | LRFCSSSVISGLQFSSRVVE | -0.029 ± 1.1
60 | LRFFHQSL | inactive
61 | LRFPRGLNGNDPGSIAS | -0.085 ± 0.79
62 | LRGLSAPACKYQWQDEMYD | -0.628 ± 0.45
63 | LRGLVMRCAFIVKGLGLCEG | 0.979 ± 0.22
64 | LRGQEKLWGVACSLVLIVTA | 1.39 ± 0.15
65 | LRGVLLSETRCAKEGLPTLS | 0.365 ± 0.36
66 | LRKNSLTCSSKKPEKAVTFC | -1.42 ± 1
67 | LRKVLW | -0.657 ± 0.79
68 | LRMNYIAAVHSCAVLHHFNA | 3.13 ± 0.073
69 | LRPLL | -0.912 ± 0.93
70 | LRRDL | -0.408 ± 0.63
71 | LRRTSVVIGRVRSSRLCGLR | 9.336 ± 0.054
72 | LRVTGNVGLSFGAKGLARPD | 3.33 ± 0.12
73 | LRWRSCGNELDFKLNGLDFE | 0.586 ± 0.74
74 | LRYHKTILYTRFSRNHTYAT | 0.498 ± 0.74
75 | LSAVLSAHIMVCLGYAYLG | inactive

Row | Substance | amyloid nucleation score
76 | LSAVWLWVNFFQHMTNRC | -1.71 ± 0.76
77 | LSFFDLIMGVRGMLQSVCGL | -0.131 ± 0.56
78 | LSFRGDSR | 0.243 ± 0.26
79 | LSGDNCPRV | -0.342 ± 0.49
80 | LSGMIGSSWAFVSLALIRYQ | -0.798 ± 0.64
81 | LSGSPVYCYCRLR | -0.453 ± 0.78
82 | LSGVFNSFCLRGNGREWVAL | -0.034 ± 0.32
83 | LSHLISFRLTTTSNFRFWDH | 3.15 ± 0.093
84 | LSHLLDGGISLKEGYILWMM | -0.252 ± 0.55
85 | LSIMHYIIYRLDFAFSWKGG | -1.05 ± 1.1
86 | LSIRWLTSCYLYGLLGSSGK | 0.256 ± 0.29
87 | LSKYLMQYNTCRLESKS | -0.336 ± 0.16
88 | LSLFVQMMSVGTILLYRMTL | 0.715 ± 0.34
89 | LSLKVKYFQKDTRVGNGEHK | 2.15 ± 0.076
90 | LSPTYRFGTTSSWGINGRDT | 0.716 ± 0.24
91 | LSQARVYLCYFEFSYFVVEP | 1.83 ± 0.12
92 | LSRDVHCSRFSHREGLITRT | 0.767 ± 0.74
93 | LSRKTYWA | 0.894 ± 0.43
94 | LSSLTLSMVA | 0.561 ± 0.62
95 | LSVEFARYTG | 1.25 ± 0.15
96 | LSVFVSGAPQIKLSNMVVKN | -0.348 ± 0.76
97 | LSVMLTYYGYMPNLYIVVRE | -0.713 ± 0.49
98 | LSVRPASNELCAHVVVRFEC | 3.66 ± 0.09
99 | LSWDYLSWTREI | -0.333 ± 0.24
100 | LSWWIHVTVWFPFQVKTGYL | -0.904 ± 0.78

Row | Substance | amyloid nucleation score
101 | LTCFSPLVRLEGA | -0.212 ± 0.49
102 | LTCSVNTGYYGYIRRL | -0.607 ± 0.25
103 | LTDCLLLLFGLLGRFYRNLS | inactive
104 | LTFRAVSWTWCYPPELSSCS | 0.775 ± 0.49
105 | LTFYCME | -0.465 ± 0.45
106 | LTGLVSLPRCWTIWVPWREG | 1.43 ± 0.25
107 | LTGNAWSSMIYSNYNMGVYS | inactive
108 | LTGSFYQHNGMLSTPRHRCL | -0.547 ± 0.63
109 | LTIDQHKVCLPN | inactive
110 | LTIFNYSFWKVDY | 0.91 ± 0.18
111 | LTPLSNIGCTCDYLMDCSYL | inactive
112 | LTRCMCPLGDIMRHKEKPEM | -1.25 ± 1.1
113 | LTRKKKMQFF | inactive
114 | LTRLFYPWK | -0.14 ± 1.1
115 | LTSGQEGG | 0.047 ± 0.45
116 | LTSMRRCPGVYVGNCGVAGR | 1 ± 0.35
117 | LTTPGQNLLILWTLSNMFMI | inactive
118 | LTTSIL | -1.06 ± 0.39
119 | LTVTW | 1.2 ± 0.21
120 | LTWFWMHSYSSFRIENHVDD | 2.18 ± 0.12
121 | LTYNISQCYILFFVYITGHD | inactive
122 | LVAFFFVSPFGGGHIAIRLR | -0.114 ± 1.1
123 | LVAIDSAFCTLGMPSADPVS | -0.097 ± 0.25
124 | LVCSNWCIVPFMYGTRHRKE | 9.299 ± 0.03
125 | LVFDRFDGNFNRSMSVAVRV | -0.211 ± 0.39

Row | Substance | amyloid nucleation score
126 | LVFFSLDFYYRGWHRDWIAG | -1.26 ± 0.64
127 | LVKNSIKRGYL | inactive
128 | LVKTFYKKWIVREREFWILR | -0.176 ± 1.1
129 | LVLENHWYLLVCRNPVQ | -0.213 ± 0.65
130 | LVLIFMDLSTGWLLSSISDI | 2.33 ± 0.066
131 | LVLNKNCLKVI | -0.426 ± 0.6
132 | LVLRRWMSVRYFMGLTMKVR | inactive
133 | LVNNGRVLSCYICV | 9.171 ± 0.056
134 | LVPGYWYMWVTGNVKRVFCD | -1.54 ± 0.62
135 | LVRLFS | -0.701 ± 0.63
136 | LVRMIIVYTCRW | 0.533 ± 0.33
137 | LVSIPSWCPTLASQKLIPR | 2.94 ± 0.19
138 | LVSMAIECHLLYLLE | 0.931 ± 0.47
139 | LVSNSSLSYPLDSYGSSRSD | -0.113 ± 0.49
140 | LVSYV | -0.873 ± 0.76
141 | LVTEVEFMSTAAGKECYCNI | -0.555 ± 0.35
142 | LVVVKFTEVKALCFSVWGMG | 1.05 ± 0.57
143 | LVWTVPTGVLFRHGC | 1.57 ± 0.24
144 | LVYLIGSGNLQRISFPQRRV | 5.51 ± 0.067
145 | LWDMIRNGC | -0.769 ± 0.45
146 | LWGVYD | -0.212 ± 0.65
147 | LWITTGNGGVPV | -0.144 ± 0.45
148 | LWIVMVVRTTQQTYATMGHG | 0.955 ± 0.29
149 | LWLGLFGCVVLHGFRIKMAL | 0.251 ± 0.35
150 | LWLVSRRNACFA | -0.408 ± 1

Row | Substance | amyloid nucleation score
151 | LWNSIDNS | inactive
152 | LWRGRIFLICFRSRDSNMCL | inactive
153 | LWRILVALFAISILRTLVMQ | 1.63 ± 0.2
154 | LWRVGHVHSWICPAICHGKC | 4.37 ± 0.057
155 | LWSEGMTLASADCR | 0.721 ± 0.22
156 | LWSLLLWLPTYRYRLYLFGA | -0.113 ± 0.79
157 | LWVVILGVGTSSNESYCKYV | -0.427 ± 0.45
158 | LYFASVNQTNSFLRIL | 2.93 ± 0.073
159 | LYFWPLTFRSGHCCGLSQVK | 1.16 ± 0.61
160 | LYHPACSAFSRSFCVKFLYW | -0.837 ± 0.61
161 | LYIASSSLHCGLDVAW | -0.298 ± 0.49
162 | LYINGEISVVIRIWFGPLVV | 0.517 ± 0.53
163 | LYISQSCGRHD | -0.554 ± 0.22
164 | LYIVDPSTASKAHTSSLPKS | -0.324 ± 0.55
165 | LYLEMMCAIVWQQSYRHNRT | 0.727 ± 0.13
166 | LYLRRWSPGLVMIQYPIILW | 0.545 ± 0.42
167 | LYLTSNIFLCLIYDL | 0.576 ± 0.18
168 | LYLVEARVTLYILGPWVVSR | 0.927 ± 0.45
169 | LYLYGDYV | 7.65 ± 0.079
170 | LYMYKNAKVLVSHLYYWYNY | inactive
171 | LYPRPPYSRWIIANHSNWGS | 0.218 ± 0.8

Reference: the supplement of paper PMC12042874
